# T1: full length PEAK3 (PEAK3^FL, residues 1-473), from E. coli, phosphorylated by Src (human, UniProt Q6ZS72 1-473, phosphorylated with Src kinase (Y24 is the site shown for PEAK3^FL by MS/MS); other Src sites not stated; biotin (EZ-Link NHS-PEG4-Biotin, 1:1 molar ratio))
# T1 construct: also called PEAK3-FL E.coli (+ Src phosphorylation); source: E. coli C41 (DE3), purified; phosphorylated in vitro with recombinant Src kinase domain
# T1 sequence (looked up): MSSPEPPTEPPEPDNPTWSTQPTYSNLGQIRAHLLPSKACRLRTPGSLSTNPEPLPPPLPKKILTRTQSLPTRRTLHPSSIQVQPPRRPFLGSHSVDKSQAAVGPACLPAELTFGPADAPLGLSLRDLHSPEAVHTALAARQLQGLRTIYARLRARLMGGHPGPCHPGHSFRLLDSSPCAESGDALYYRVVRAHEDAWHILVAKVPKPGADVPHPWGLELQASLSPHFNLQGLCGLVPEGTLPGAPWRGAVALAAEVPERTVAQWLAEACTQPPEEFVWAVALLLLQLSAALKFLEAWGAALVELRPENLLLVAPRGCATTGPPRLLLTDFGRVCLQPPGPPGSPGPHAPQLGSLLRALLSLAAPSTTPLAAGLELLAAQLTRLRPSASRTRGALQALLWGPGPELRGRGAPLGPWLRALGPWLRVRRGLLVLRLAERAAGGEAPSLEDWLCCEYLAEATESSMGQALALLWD
# T2: full length PEAK3 (PEAK3^FL, residues 1-473), from E. coli (human, UniProt Q6ZS72 1-473, biotin (EZ-Link NHS-PEG4-Biotin, 1:1 molar ratio))
# T2 construct: also called PEAK3-FL E.coli; source: E. coli C41 (DE3), purified (two-step purification)
# T2 sequence (looked up): T1 sequence (looked up)
# T3: PEAK1^IDR1 (residues 1082-1746), from insect cells, phosphorylated by Src (human, UniProt Q9H792 1082-1746, phosphotyrosine at Y1107 (by Src in vitro, shown by MS/MS); other Src sites not stated; biotin (EZ-Link NHS-PEG4-Biotin, 1:1 molar ratio))
# T3 construct: human PEAK1, UniProt Q9H792, residues 1082-1746; also called PEAK1-IDR1 (+ Src phosphorylation); source: Sf21 insect cells, purified; phosphorylated in vitro with recombinant Src kinase domain
# T3 sequence (looked up): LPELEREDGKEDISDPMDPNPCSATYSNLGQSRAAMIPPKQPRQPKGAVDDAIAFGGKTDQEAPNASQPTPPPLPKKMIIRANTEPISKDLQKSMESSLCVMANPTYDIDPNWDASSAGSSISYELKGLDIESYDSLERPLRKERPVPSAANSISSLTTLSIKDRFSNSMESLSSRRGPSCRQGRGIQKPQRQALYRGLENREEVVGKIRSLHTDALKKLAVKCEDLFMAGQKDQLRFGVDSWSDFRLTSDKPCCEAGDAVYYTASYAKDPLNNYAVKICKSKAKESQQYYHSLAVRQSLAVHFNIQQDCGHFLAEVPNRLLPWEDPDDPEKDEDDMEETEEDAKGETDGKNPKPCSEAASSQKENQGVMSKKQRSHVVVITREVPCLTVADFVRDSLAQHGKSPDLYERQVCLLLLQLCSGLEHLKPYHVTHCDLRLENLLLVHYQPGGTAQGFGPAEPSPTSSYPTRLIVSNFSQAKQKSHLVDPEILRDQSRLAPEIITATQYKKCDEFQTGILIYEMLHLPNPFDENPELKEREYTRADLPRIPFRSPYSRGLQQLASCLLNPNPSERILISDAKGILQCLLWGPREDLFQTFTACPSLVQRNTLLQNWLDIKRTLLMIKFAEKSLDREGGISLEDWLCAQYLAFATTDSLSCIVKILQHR
# T4: full length PEAK3 (PEAK3^FL, residues 1-473), from insect cells (human, UniProt Q6ZS72 1-473, phosphoserine at S69; biotin (EZ-Link NHS-PEG4-Biotin, 1:1 molar ratio))
# T4 construct: Immobilised as the complex with insect cell 14-3-3ε,ζ
# T4 sequence (looked up): T1 sequence (looked up)
# T5: PEAK1^IDR1 (residues 1082-1746), from insect cells (human, UniProt Q9H792 1082-1746, biotin (EZ-Link NHS-PEG4-Biotin, 1:1 molar ratio))
# T5 construct: human PEAK1, UniProt Q9H792, residues 1082-1746; Purifies as a homodimer; Phosphorylation at the tandem 14-3-3 motif was not observed
# T5 sequence (looked up): T3 sequence (looked up)
# T6: PEAK3 tandem peptide, non-phosphorylated (residues 54-74) (human, N-terminal acetyl; C-terminal amide)
# T6 construct: source: synthetic peptide, bought: Mimotopes (95% purity)
# T6 peptide: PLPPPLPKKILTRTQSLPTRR
# T7: PEAK3 tandem-pS69 peptide (residues 54-74) (human, N-terminal acetyl; phosphoserine at S69; C-terminal amide)
# T7 construct: source: synthetic peptide, bought: Mimotopes (95% purity)
# T7 peptide: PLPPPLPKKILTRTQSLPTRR
# B1: CrkII N-terminal SH3 domain (CrkII^NSH3, residues 134-191) (domain or fragment, human, UniProt P46108-1 134-191, looked up)
# chain: AEYVRALFDFNGNDEEDLPFKKGDILRIRDKPEEQWWNAEDSEGKRGMIPVPYVEKYR
# notes: human CrkII NSH3 domain, UniProt P46108-1, residues 134-191; Amine coupled to a CM5 chip in a2; analyte in a4; in the syringe in ITC
# Columns and labels:
# Details in all cases: both partners purified
# [1] = molecular target: T1, full length PEAK3 (PEAK3^FL, residues …); test: SPR; biotinylated PEAK proteins (with or without Src phosphorylation) captured with a biotin CAPture kit, CrkII NSH3 as analyte; Biacore 8K+, 20 °C, HBS-TP (150 mM NaCl); 1 M NaCl regeneration; steady state
# [2] = molecular target: T2, full length PEAK3 (PEAK3^FL, residues …); test: as above
# [3] = molecular target: T3, PEAK1^IDR1 (residues 1082-1746), from …; test: as above
# [4] = molecular target: T4, full length PEAK3 (PEAK3^FL, residues …); test: as above
# [5] = molecular target: T5, PEAK1^IDR1 (residues 1082-1746), from …; test: as above
# [6] = molecular target: T6, PEAK3 tandem peptide, …; test: ITC; binary; peptide in the cell (20 µM, or 16.8 µM after a buffer titration), protein in the syringe; 25 °C, 20 mM HEPES pH 7.4, 150 mM NaCl, 1 mM TCEP; single binding site model
# [7] = molecular target: T7, PEAK3 tandem-pS69 peptide (residues …); test: as above
binder,measurement,setting,value
B1,Kd,[1],13.1 µM
same,Kd,[2],9.6 µM
same,Kd,[3],4.11 µM
same,Kd,[4],3.87 µM
same,Kd,[5],3.7 µM
same,stoichiometry N,[6],0.904
same,stoichiometry N,[7],0.823

# From PMC10279719 (Nature Communications, 2023)
